These results are taken from the RNAGym collection of RNA variant scans (doi:10.7554/elife.80360).

Sequences and labels used below:
B1: HDV Ribozyme (parent)
chain: GGCCGGCAUGGUCCCAGCCUCCUCGCUGGCGCCGGCUGGGCAACAUUCCGAGGGGACCGUCCCCUCGGUAAUGGCGAAUGGGACCCA

The data set covers variants of B1. As to the kind of experiment: self-cleavage, relative activity (ratio to wild type); higher = more cleavage; co-transcriptional.
In the case of GGCCGGCAUGGUCCCAGCCUCCUCGCUGGCGCCGGCUGGGCACCAUUCCGAGGGUACCGUCCCCUCGGUAAUGGCGAAUGGGACCCA, the self-cleavage was 0.748.

As for GGCCGGCAUGGUCCCAGCCUCCUCGCUGGCGCCGGCUGGGCAGCAUUCCGAGGGGACCGUCCCCUCGGUAAUGGCGAAUGGGACCCA, the self-cleavage amounted to 0.618. On to GGCCGGCAUGGUCCCAGCCUCCUCGCUGGCGCCGGCUGGGCAGCAUUCCGAGGGGACCGUCCCCUCGGUAAUGGCGAAUAGGACCCA, for which the self-cleavage stood at 0.115. For GGCCGGCAUGGUCCCAGCCUCCUCGCUGGCGCCGGCUGGGCACCAGUCCGAGGGGACCGUCCCCUCGGUAAUGGCGAAUGGGACCCA, the self-cleavage came out at 0.415.

For the variant GGCCGGCAUGGUCCCAGCCUCCUCGCUGGCGCCGGCUGGGCAGCAUUCCGAGGGGACCGUCCCCUCGGUAAUGGCGAAUGGGACCCU, the self-cleavage amounted to 0.554. For the variant GGCCGGCAUGGUCCCAGCCUCCUCGCUGGCGCCGGCUGGGCACCAUUCCGAGGGGACCGUCCCCUCGGUAAUGGCGAAUGUGACCCA, the self-cleavage turned out to be 0.

For the variant GGCCGGCAUGGUCCCAGCCUCCUCGCUGGCGCCGGCUGGGCACCAUUCCGAGGGGACCGUCCCCUCGGUAAUGGCGAAUGCGACCCA, the self-cleavage came out at 0.0773.

On to GGCCGGCAUGGUCCCAGCCUCCUCGCUGGCGCCGGCUGGGCAGCCUUCCGAGGGGACCGUCCCCUCGGUAAUGGCGAAUGGGACCCA, for which the self-cleavage is 0.0504.

As for GGCCGGCAUGGUCCCAGCCUCCUCGCUGGCGCCGGCUGGGCAGCUUUCCGAGGGGACCGUCCCCUCGGUAAUGGCGAAUGGGACCCA, the self-cleavage is 0.584.

With GGCCGGCAUGGUCCCAGCCUCCUCGCUGGCGCCGGCUGGGCACCAUGCCGAGGGGACCGUCCCCUCGGUAAUGGCGAAUGGGACCCA, the self-cleavage stood at 0.302.

GGCCGGCAUGGUCCCAGCCUCCUCGCUGGCGCCGGCUGGGCACCAUCCCGAGGGGACCGUCCCCUCGGUAAUGGCGAAUGGGACCCA: the self-cleavage came out at 0.208. In the case of GGCCGGCAUGGUCCCAGCCUCCUCGCUGGCGCCGGCUGGGCAGCAUUCCGAGGGGGCCGUCCCCUCGGUAAUGGCGAAUGGGACCCA it was 0.26; in that of GGCCGGCAUGGUCCCAGCCUCCUCGCUGGCGCCGGCUGGGCACCAUUCCGAGGGGACCGUCCCCUCGGUAAUGGCUAAUGGGACCCA, 0.95; in that of GGCCGGCAUGGUCCCAGCCUCCUCGCUGGCGCCGGCUGGGCACCAUUCCGAGGGGACCGUCCCCUCGGUAAUGGCCAAUGGGACCCA, 0.604. In the case of GGCCGGCAUGGUCCCAGCCUCCUCGCUGGCGCCGGCUGGGCACCAUUCCGAGGGGACCGCCCCCUCGGUAAUGGCGAAUGGGACCCA it was 0.532; in that of GGCCGGCAUGGUCCCAGCCUCCUCGCUGGCGCCGGCUGGGCAGCAUUCCGAGGGGACCGUCCCCUCGGUAAUGGCGAAUGGGGCCCA, 0.215. For the variant GGCCGGCAUGGUCCCAGCCUCCUCGCUGGCGCCGGCUGGGCAGCAUUCCGAGGGGACCGUCCCUUCGGUAAUGGCGAAUGGGACCCA, the self-cleavage is 0.657. In the case of GGCCGGCAUGGUCCCAGCCUCCUCGCUGGCGCCGGCUGGGCAGCAUUCCGAGGGGACCGUCCCGUCGGUAAUGGCGAAUGGGACCCA it was 0.644.

Turning to GGCCGGCAUGGUCCCAGCCUCCUCGCUGGCGCCGGCUGGGCAGCAUUCCGAGGGAACCGUCCCCUCGGUAAUGGCGAAUGGGACCCA, the self-cleavage turned out to be 0.566. In the case of GGCCGGCAUGGUCCCAGCCUCCUCGCUGGCGCCGGCUGGGCAGCAUUCCGAGGGGACCGUCCCCUCGCUAAUGGCGAAUGGGACCCA, the self-cleavage was 0.253. In the case of GGCCGGCAUGGUCCCAGCCUCCUCGCUGGCGCCGGCUGGGCAGCAUUCCGAGGGGACCGUCCCCUCGAUAAUGGCGAAUGGGACCCA it was 0.665; in that of GGCCGGCAUGGUCCCAGCCUCCUCGCUGGCGCCGGCUGGGCACCAUUCCGAGGGGACCGUCCCCUCGGUAAUGGCGAAUAGGACCCA, 0.124. The value for GGCCGGCAUGGUCCCAGCCUCCUCGCUGGCGCCGGCUGGGCACCAUUCCGAGGGGACCGUCCCCUCGGUAAUGUCGAAUGGGACCCA was 0.415; that for GGCCGGCAUGGUCCCAGCCUCCUCGCUGGCGCCGGCUGGGCACCAUUCCGAGGGGACCGUCCCCUCGGUAAUGCCGAAUGGGACCCA was 0.0811.

As for GGCCGGCAUGGUCCCAGCCUCCUCGCUGGCGCCGGCUGGGCACCAUUCCGAGGGGACCGUCCCCUCGGUAAUGACGAAUGGGACCCA, the self-cleavage was found to be 0.509. The value for GGCCGGCAUGGUCCCAGCCUCCUCGCUGGCGCCGGCUGGGCAGCAUUCCGAUGGGACCGUCCCCUCGGUAAUGGCGAAUGGGACCCA was 0.742. For the variant GGCCGGCAUGGUCCCAGCCUCCUCGCUGGCGCCGGCUGGGCAGCAUUCCGAGGGGACCGUCCCCUCGGUAAUGGCGAAUGGGAUCCA, the self-cleavage amounted to 0.426. Take GGCCGGCAUGGUCCCAGCCUCCUCGCUGGCGCCGGCUGGGCAGCAUUCCGAGGGGACCGUUCCCUCGGUAAUGGCGAAUGGGACCCA: the self-cleavage stood at 0.739.

Take GGCCGGCAUGGUCCCAGCCUCCUCGCUGGCGCCGGCUGGGCAGCAUUCCGAGGGGACCGUACCCUCGGUAAUGGCGAAUGGGACCCA: the self-cleavage was 0.499. In the case of GGCCGGCAUGGUCCCAGCCUCCUCGCUGGCGCCGGCUGGGCAGCAUUCCGAGGAGACCGUCCCCUCGGUAAUGGCGAAUGGGACCCA it was 0.378. For GGCCGGCAUGGUCCCAGCCUCCUCGCUGGCGCCGGCUGGGCAGCAUUCGGAGGGGACCGUCCCCUCGGUAAUGGCGAAUGGGACCCA, the self-cleavage turned out to be 0.344. Consider GGCCGGCAUGGUCCCAGCCUCCUCGCUGGCGCCGGCUGGGCAGCAUUCCGAGGGGACCGUCCCCUCGGUCAUGGCGAAUGGGACCCA, for which the self-cleavage was found to be 0.9.
